This note sets out measurements from PMC3183090, “A Noncoding Point Mutation of Zeb1 Causes Multiple Developmental Malformations and Obesity in Twirler Mice”.

In data set [1] the target is T1, C-Myb (mouse, UniProt P06876 1-636). The data set can be described thus: competition; unlabeled, 25- or 50-fold molar excess vs labeled N1; complete inhibition; 20 ul reactions with EMSA Accessory Kit (Novagen), 6% DNA retardation gel; buffer composition, salt, pH and temperature not stated. Particulars: protein: recombinant; tags: pET-41a(+) vector tags (Ni-NTA purified); 5' overhang 1 nt on strand 1 as printed (S6 lacks the 3' C).

Data set [2] concerns the target T1, C-Myb. Nature of the data set: EMSA; 20 ul reactions with EMSA Accessory Kit (Novagen), 6% DNA retardation gel; buffer composition, salt, pH and temperature not stated. Conditions: protein: recombinant; tags: pET-41a(+) vector tags (Ni-NTA purified); blunt. (In general: In EMSA bound probe runs differently from free probe, usually more slowly.)

Residue numbers refer to the chain shown, from its start.

T1 sequence (P06876 whole entry): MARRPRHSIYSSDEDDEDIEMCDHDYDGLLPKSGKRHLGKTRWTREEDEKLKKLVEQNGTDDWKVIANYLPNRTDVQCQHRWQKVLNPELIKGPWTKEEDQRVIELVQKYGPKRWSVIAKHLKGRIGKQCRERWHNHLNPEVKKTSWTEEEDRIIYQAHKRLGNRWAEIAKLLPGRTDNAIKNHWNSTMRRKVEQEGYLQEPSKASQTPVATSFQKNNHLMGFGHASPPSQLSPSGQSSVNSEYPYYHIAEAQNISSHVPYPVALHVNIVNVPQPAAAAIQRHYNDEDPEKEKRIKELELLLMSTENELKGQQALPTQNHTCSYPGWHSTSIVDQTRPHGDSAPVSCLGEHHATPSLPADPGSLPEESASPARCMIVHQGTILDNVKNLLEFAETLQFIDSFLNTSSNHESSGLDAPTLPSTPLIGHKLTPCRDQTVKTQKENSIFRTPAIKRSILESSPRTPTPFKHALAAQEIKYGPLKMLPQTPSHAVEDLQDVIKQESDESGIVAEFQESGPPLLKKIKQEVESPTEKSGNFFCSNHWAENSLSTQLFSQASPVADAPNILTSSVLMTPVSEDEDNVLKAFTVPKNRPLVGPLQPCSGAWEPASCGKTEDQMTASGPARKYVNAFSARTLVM

B1: mim-1 C-Myb site control (dsDNA)
DNA 1: GCTCTAAAAAACCGTTATAATGTACAGATATCTT
DNA 2: AAGATATCTGTACATTATAACGGTTTTTTAGAG
As for B1, the binding result with C-Myb [1] is reported as “binds”.

B2: Zeb1 c.58+181A (Twirler) probe (dsDNA)
DNA 1: TGCTGGACTGGACCATTATGTCTTACCTGC
DNA 2: GCAGGTAAGACATAATGGTCCAGTCCAGCA
In the case of B2, the binding result with C-Myb [2] is given as “no binding”.

B3: Zeb1 c.58+181G (wild type) probe (dsDNA)
DNA 1: B2 DNA 1 with A15G
DNA 2: B2 DNA 2 with T16C
On to B3, for which the binding result in the data set with C-Myb [2] is “binds”.
